# Measurements published in the nanobody polyreactivity screen of Harvey et al. (2022).
# Assay: yeast display, Sf9 membrane polyspecificity reagent, FACS + sequencing; frameworks hold sequencing errors
# Outline: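 A synthetic nanobody library was expressed on Saccharomyces cerevisiae BJ5465 by galactose induction for 36–48 hours. The library was stained for 1 hour at 4 °C with 10% biotinylated, detergent-solubilized Sf9 membrane reagent and enriched with streptavidin microbeads before FACS. Low and high (top ~1%) gates were set on anti-HA fluorescence for expression and streptavidin fluorescence for reagent binding, and each polyreactivity label reflects the gate of origin.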
row,Sequence,polyreactivity (PSR sort gate)
1,QVQLVESGGGLVQAGGSLRLSCAASGRIFVKNAMGWYRQAPGKERELVAAISRGGSTYYADSEKGRFTISRDNAKITVYLQMNSLKPEDTAVYNCAPGGQGGDFGDDYWGQGTQVTVSS,high polyreactivity
2,QVQLVESGGGLVQAGGSLRLSCAASGRIFVKNAMGWYRQAPGKERELVAGISRGGSTYYADSVKGRFTISRDNAKNTVYLQMYSLKPEDTAVYYCATRNYGRGQFDYWGQGSQVTVSS,high polyreactivity
3,QVQLVESGGGLVQAGGSLRLSCAASGRIFVKYAMGWYRQAPGKERELVAAIRSGGSTYYADSVKGRFTISRDNAKNTVYLQMNSLKPEDTAVYDCAADRNKHHYYTEPYDYWGQGTQVTVSS,low polyreactivity
4,QVQLVESGGGLVQAGGSLRLSCAASGRIFVKYAMGWYRQAPGKEREMVAAISASGGGTYYADSVKGRFTISRDNAKNTVYLQMNSLNPVDTAVYYFNADFRYPGQVPSYVTYDYWGQGTQVNVSS,low polyreactivity
5,QVQLVESGGGLVQAGGSLRLSCAASGRIFVKYVMGWYRQAPGKERELVAAISSRGGSTYYADSVKGRFTSSRDNAKNTVYLQMNSLKPEDTAVYYCNKAFTARDDYWGQGTQVTVSS,high polyreactivity
6,QVQLVESGGGLVQAGGSLRLSCAASGRIFVKYVMGWYRQAPGKERELVAAITYTGGTYYADSVKGRFTISRDTAKNTVYLQMNSLKPEETAVYYCAADYQGSYYSGSYQTWTEYYYWGQGTQVTVSS,high polyreactivity
7,QVQLVESGGGLVQAGGSLRLSCAASGRIFVNYAMGWYRQAPGKERELVAVISRSGGGTNYADSVKGRFTISRDNAKNTVYLQMNSLKPEDTAVYYCNRVYALTYYAKYGYDYWGQGTQVTVSS,high polyreactivity
8,QVQLVESGGGLVQAGGSLRLSCAASGRIFVPNAMGWYRQAPGKERELVAAITRSGSTYYADSVKGRFTISRDNAKNTVYLQMNSLKPEDTAVYYCAADYYYPSQMDSWGQGTQVTVSS,low polyreactivity
9,QVQLVESGGGLVQAGGSLRLSCAASGRIFVPNAMGWYRQAPGKERELVAAITRSGSTYYADSVKGRFTISRDNAKNTVYLQMNSLKPEDTAVYYCNAASRRFPGKVWDYHYWGQGTQVTVSS,low polyreactivity
10,QVQLVESGGGLVQAGGSLRLSCAASGRIFVPYAMGWSRQAPGKEREFVAAISWNTGSTYYADSVKGRFTISRDNAKNTVYLQMNSLNPVDTAVYYCAAGSGVSYEGGYKINGYWGQGTQVTVSS,high polyreactivity
11,QVQLVESGGGLVQAGGSLRLSCAASGRIFVPYAMGWYRQAPGKERELVAAISWNTGSTYYADSVKGRFTISRDNAKNTVYLQMNSLKPEDTAVYYCAAGSRVRYDGGYKINGYWGQGTQVTVSS,high polyreactivity
12,QVQLVESGGGLVQAGGSLRLSCAASGRIFVRNAMGWYRQAPGKEMEFVAAISRSGGSTYYADSVKGRFTISRDNAKNTVYLQMNSLKPEDTAVYYCAADYPKTYTSKFNYWGQGTQVTVSS,high polyreactivity
13,QVQLVESGGGLVQAGGSLRLSCAASGRIFVRNAMGWYRQAPGKEREFVAAISRSGGSTYYADSVKGRFTISRDNAKNTVYLQMNSLKPEDTAVYYCAADYPKTYTSKFNYWGQGTQVTVSS,high polyreactivity
14,QVQLVESGGGLVQAGGSLRLSCAASGRIFVRNAMGWYRQAPGKERELVAAISRSGGSTSYADSVKGRFTISRDNAKNTVYLQMNSLKPEDTAVYYCAARYARYQYQYDYWGQGTQVTVSS,high polyreactivity
15,QVQLVESGGGLVQAGGSLRLSCAASGRIFVRNTMGWYRQAPGKERELVAAINSGGSTYYADSVKGRFTISRDNENNTVYLQMNSLKPEDTAVYYCAGQFYLFYEYDYWGQGTQVTVSS,high polyreactivity
16,QVQLVESGGGLVQAGGSLRLSCAASGRIFVRYAMGWYRQAPGKERELVAGITSGSRTNYADSVKGRFTISRDNAKNTVYLQMNSLKPEDTAVYYCNARVFRYYGIFDYWGQGTQVTVSS,high polyreactivity
17,QVQLVESGGGLVQAGGSLRLSCAASGRIFVRYDMGWYRQAPGKERELVAAISSSDGSTYYADSVKGRFTISRDNAKNTVYLQMNSLKPEDTAVYYCNADVSLDDYDYWGQGTQVTVSS,low polyreactivity
18,QVQLVESGGGLVQAGGSLRLSCAASGRIFVSNAMGWYRQAHGKERELVAGITWTSGSTYYADSVKGRFTISRDNAKNTVYLLMNSLKPEDTAVYYCAAEYWYGNAFDYWGEGTQVTVSS,low polyreactivity
19,QVQLVESGGGLVQAGGSLRLSCAASGRIFVSYAMGWYRQAPGKERELVAAISSSGGSTYYADSVKGRFTISRDNAKNTVYLQMNSLKPEDTAVYYCNTDQRSRMDYWGQGTQVTVSS,low polyreactivity
20,QVQLVESGGGLVQAGGSLRLSCAASGRIFVSYAMGWYRQAPGKERELVAAITYSVDSTYYADSVKGRFTISRDNAKNTVYLQMNSLKPEDTAVSYCATDVDWAYGYQYEYWGQGTQVTVSS,low polyreactivity
21,QVQLVESGGGLVQAGGSLRLSCAASGRIFVSYTMGWYRQAPGKERELVAAISTDATTNYADSVKGRFTISRDNAKNTVYLQMNSLKPEDTAVYYCAADPFEYSYYTLYTSNPFYYWGQGTQVTVSS,low polyreactivity
22,QVQLVESGGGLVQAGGSLRLSCAASGRIFVTNAMGWSRQGPGKERELVAAISYRGGRTYYADSVKGRFTISRDNAKNTVYLQMNSLKPEDTAVYYCNAVTRWPFDYWGQGTQVTVSS,high polyreactivity

row,Sequence,polyreactivity (PSR sort gate)
1,QVQLVESGGGLVQAGGSLRLSCAASGRIFVTYAMGWYRQAPGKERELVAAIPWDGDSTYYADSVKGRFTISRDNAKNTVYLQMNSLKPEDTAVYYCNAKKFNSHVELGYDYWGQGTQVTVSS,low polyreactivity
2,QVQLVESGGGLVQAGGSLRLSCAASGRIFVVNAMGWYRQAPGKERELVATITRGASTYADSVKGRFTISRDNAKNTVYLQMNSLKLEDTAVYYCAAAKRPQVVRYDWTKLEYWGQGTQVTVSS,high polyreactivity
3,QVQLVESGGGLVQAGGSLRLSCAASGRIFVVYAMGWYRQAPGKERELVAAITSSGNTNYADSVKGRFTISRDNAKNTVYLQMNSLKPEDTAVYYCAATRDYSSDYWGQGTEVTVSS,low polyreactivity
4,QVQLVESGGGLVQAGGSLRLSCAASGRIFVVYAMGWYRQAPGKERELVASITWRGGSTYYADSVKGRFTISRDNAKNTVYLQMNSLKPEDTAVYYCAARYARYLLYDYWGQGTQVTVSS,low polyreactivity
5,QVQLVESGGGLVQAGGSLRLSCAASGRIFVWNTMGWYRQAPGKERELVAAITSGGSTTYADSVKGRFTISRDNAKNSVSFQMNSLKPEDTAVYYCNTELDLYHPGDDYWGQGTQVTVSS,high polyreactivity
6,QVQLVESGGGLVQAGGSLRLSCAASGRIFVYNAMGSYRQAPGKERELVAAINSGTITNSADSVKGRFTISRDNGKNTVYLQMNSRIPEDTAVSYCAAPWYPSTDYNYWGQGTQVTVSS,low polyreactivity
7,QVQLVESGGGLVQAGGSLRLSCAASGRIFVYNAMGWYRQAPGKEWELVATITSGGSTYYADSVKGRFTISRDNAMNTVYLQMNSLKPEDTAVYYCAARRWYVHYFAYGYWGQGTQVTVSS,low polyreactivity
8,QVQLVESGGGLVQAGGSLRLSCAASGRIFVYYAMGWYRQAPGKERELVAAISSSGGSTYYADSVKGRFTISRDNAKNTVYLQMNSLKPEDTAVYYCNAVTYFSLSYPRHDYWGQGTQVTVSS,high polyreactivity
9,QVQLVESGGGLVQAGGSLRLSCAASGRIFVYYAMGWYRQAPGKERELVAAITASGASTYYADSVKGRFTISRDNAKNTVYLQMNSLKPEDTAVYYCNVLYPRKYWQVREYYWGQGTQVTVSS,high polyreactivity
10,QVQLVESGGGLVQAGGSLRLSCAASGRIFVYYAMGWYRQAPGKERELVAAITYSVDSTYYADSVKGRFTISRDNAKNTVYLQMNSLKPEDTAVYDCATDVDWAYGYQYEYWGQGTQVTVSS,low polyreactivity
11,QVQLVESGGGLVQAGGSLRLSCAASGRIFVYYTMGWYRQAPGKERELVAAITGSGGSTYYADSVKGRFTISRDNAKNTVYLQMNCLKPEDTAVYYCAARYASTGGGYKYYYWGQGTQVTVSS,high polyreactivity
12,QVQLVESGGGLVQAGGSLRLSCAASGRIFVYYTMGWYRQAPGKERELVAAITGSGGSTYYADSVKGRFTISRDNAKNTVYLQMNSLKPEDTAVYYCAAQLGWWGSGYWGQGTQVTVSS,high polyreactivity
13,QVQLVESGGGLVQAGGSLRLSCAASGRIFWANAMGWYRQAPGKERELVAAISYSGVSTYYADSVKGRFTISRDNAKNTVYLQMNSLIPEDTAVYYCAADRYRKYYYWGQGTQVTVSS,high polyreactivity
14,QVQLVESGGGLVQAGGSLRLSCAASGRIFWANTMGWYRQAPGKERELVAAITYSGDSTYYADSVKGRFTISRDNAKNTVYLQMNSLKPEDTAVYYCNAVPSKFSWAVYRGQYDYDYWGQGTQVTVSS,low polyreactivity
15,QVQLVESGGGLVQAGGSLRLSCAASGRIFWAYAMGWYRQAPGKERELVAAINGSGGSTNYADSVKGRFTISRDNAKNTVYLQMNSLIPEDTAVYYCAADWSLRLYDYWGQGTQVTVSS,low polyreactivity
16,QVQLVESGGGLVQAGGSLRLSCAASGRIFWDNAMGWYRQAPGKERELVAAIDYRGGNTNYADSVKGRFTISRDNAKNTVYLQMNSLKPEDTAVYYCNAEWAVRYPGYDYWGQGTQVTVSS,low polyreactivity
17,QVQLVESGGGLVQAGGSLRLSCAASGRIFWDNAMGWYRQAPGKERELVAAISDSVVITYYADSVKGRFTISRDTAKNTVYLQMNSLKPEDTAVYYCGADKRGTVYLSSFWMDYWGQGTQVTVSS,low polyreactivity
18,QVQLVESGGGLVQAGGSLRLSCAASGRIFWDYAMGWYRQAPGKERELVAGISYSGGSTSYADSVKGRFTISRDNAKNTVYLQMKSLKPEDTAVYYCAAGPSGTFFRDYDYWGQGTQVTVSS,low polyreactivity
19,QVQLVESGGGLVQAGGSLRLSCAASGRIFWDYAMGWYRQAPGKERELVAVITFSGDSTYYADSVKGRFTISRDNAKNTVYLQMNSLKPEDTAVYYCAAARAIRQFWYVATFEYWGQGTQVTVSS,low polyreactivity
20,QVQLVESGGGLVQAGGSLRLSCAASGRIFWFNAMGWYRQAPGKERELVAAISGGSTNYADSVKGRFTISRDNAKNTVYLQMNSLKPEDTAVYYCAARYLRRYNWGQGTQVTVSS,high polyreactivity
21,QVQLVESGGGLVQAGGSLRLSCAASGRIFWGNAMGWYRQAPGKEWELVAAITRRGGTTFYADSVKGRFTISRDNAKNTVYLQMNSLKPEDTAVYYCAARRYGQYDGYDSWGQGTQVTVSS,high polyreactivity
